From patent publication US5849703A, “Pre-formed anticoagulant heparin/TFPI complexes” (G. D. Searle & Co., priority 1996, dated 1998)
Where “and” joins values, the source holds several entries; their conditions need not be identical. Identical values can stand only once. Entries after “also recorded” stand apart in the source; their conditions may differ. Like-named read-outs stand apart in the source and are kept apart here.

Assays:
[1] = tested on: TF-induced clotting in human plasma; assay: Dilute prothrombin time (dPT) assay: TF-induced clotting of human plasma; format: biochemical; settings: 1:4 dilution of Simplastin
Experimental: dPT assay was carried out using 1:4 dilution of Simplastin®. Closed square and closed triangle on the abscissa indicate the clotting times of the plasma supplemented with control buffer and 2 μg/ml FL-TFPI, respectively.
dPT assay was carried out using 1:40 dilution of Simplastin®. Closed square and closed triangle on the abscissa indicate the clotting times of the plasma supplemented with control buffer and 0.3 μg/ml FL-TFPI, respectively.
(§1) Rabbit brain thromboplastin (TF;Simplastin®) was diluted to varying degrees ranging from 1:4 to 1:50 with a buffer containing 12.5 mM CaCl2, 75 mM NaCl, 0.5 mg/ml bovine serum albumin, and 0.02% NaN3, for determination of TF-induced clotting time in human plasma. Fifty (50) μl of human plasma were mixed with 50 μl of DB, heparin, TFPI, or preformed complexes of heparin/TFPI in DB in the well of a Fibrometer at 37° for 1 min. Two hundred (200) μl of appropriately diluted thromboplastin reagent were then added and the time to clotting was determined.
(§2) The dPTs reported here are the average of 2 to 8 determinations, depending on the length of the clotting time. When the clotting time was short (<100 sec), the variations between determinations are small and 2-4 assay values were averaged for each data point. When the clotting time is long (>100 sec), the variations between determinations are larger and 5-8 assay values are averaged for each data point. […] The concentrations of heparin and TFPI are expressed as units or μg per ml of plasma, not as that in the final assay mixture.
In one-stage TF-induced plasma clotting assay, clotting time is dependent on the concentration of TF and the concentrations of anticoagulants present. […] In the absence of added anticoagulants, the addition of this concentration of TF caused the plasma to clot in 20 sec (closed square).

[2] = cited from earlier work
[3] = pH 7.4
From the text: (§6) The solubility of non-glycosylated recombinant E. coli-derived FL-TFPI [Diaz-Collier, et al., Thromb.

[4] = tested on: TF-induced clotting of TFPI-depleted plasma; assay: dPT assay in TFPI-depleted plasma (1:50 dilution of Simplastin); format: biochemical, human; settings: for prolongation of clotting time: increasing concentrations, alone, 1:50 dilution of Simplastin
Experimental: FIG. 2B: Effects of CT-TFPI (.quadrature.), heparin (.circle-solid.), and sequential addition of CT-TFPI and heparin (.tangle-solidup.) on clotting time. dPTs were determined as described in METHODS using 1:50 dilution of Simplastin®.
Pooled plasma was prepared by mixing four (4) units of individual plasmas, and TFPI-depleted pooled plasma was obtained by passing the pooled plasma through a rabbit anti-human TFPI-Ig Sepharose® 4B column as described previously [(Wun, J. Biol. Chem. 265:16096-16101 (1990)].
as §1, §2
In the present work, FL-TFPI and CT-TFPI were separated by Mono S chromatography as described before [Wun, et al., Thromb. Haemost. 68, 54-59 (1992)], and the effects of heparin, FL-TFPI, or CT-TFPI alone, and combinations of heparin/FL-TFPI, and heparin/CT-TFPI were compared. FIGS. 2A and B show the results.

[5] = tested on: extrinsic and the common pathways; assay: Prothrombin time (PT) assay; format: biochemical, human
Experimental: (§3) Measurement of PT and APTT are as described in METHODS. PT and APTT ratios are calculated by dividing the clotting times in the presence of the indicated amounts of FL-TFPI or heparin by the clotting times in the absence of anticoagulants.
Ninety (90) μl of plasma were mixed with 10 μl of DB (dilution buffer containing 10 mM Tris/HCl, pH 7.4, 150 mM NaCl, 1 mM Na2 SO4, 1 mg/ml bovine serum albumin, and 0.02% NaN3), FL-TFPI solution, or heparin solution in the Fibrometer well at 37° for 1 min. Two hundred (200) μl of Simplastin® were then added and the time to clotting was recorded.
(§4) PT is a global test that primarily measures the functionality of the extrinsic and the common pathways; while APTT is a procedure which evaluates that of the intrinsic and the common pathways. The individual effects of heparin and FL-TFPI on PT and APTT were examined to determine the primary sites of their actions.

[6] = Pharmacokinetics following bolus injection in rabbits; format: in vivo, rabbit; settings: for tα: bolus FL-TFPI 1.5 mg/kg or heparin 1.9 mg/kg/FL-TFPI 1.5 mg/kg; for % AUCα / % AUCβ / Clearence / Vd / tβ: bolus
Experimental: The pharmacokinetics study was carried out as described in METHODS. Rabbits were injected with a bolus of FL-TFPI (1.5 mg/kg) or heparin (1.9 mg/kg)/FL-TFPI (1.5 mg/kg) complex.
(§5) Plasma levels of TFPI antigen were measured by PCFIA assay. Functional TFPI activity in the plasma was also measured by dPT assay using each rabbit's own control plasma supplemented with known concentrations of FL-TFPI as a reference standard [Palmier, et al., Thromb. Haemost. 68, 33-36 (1992)]. Data from individual animals were fitted to the general bi-exponential equation: […]
where C is the concentration of TFPI at time t, and A and B are the intercept values (to) extrapolated from a and b, the first order elimination rate constants.

[7] = Plasma levels of TFPI following bolus injection and constant infusion; format: in vivo, rabbit; settings: infusion of 11.4 μg/kg/min FL-TFPI, 4 h; PCFIA
Experimental: For FL-TFPI, a bolus of 0.5 mg/kg was injected through the femoral vein followed by constant infusion of FL-TFPI (11.4 μg/kg/min).
For heparin/FL-TFPI, a bolus of preformed heparin (0.24 mg/kg)/FL-TFPI (0.19 mg/kg) complex was injected followed by constant infusion of heparin (5.4 μg/kg/min)/FL-TFPI (4.3 μg/kg/min) complex. Infusions were carried out over a 4-h period. Plasma levels of TFPI were measured by PCFIA assay.
For constant infusion studies, a bolus of FL-TFPI (0.5 mg/kg) or pre-formed heparin (0.24 mg/kg)/FL-TFPI (0.19 mg/kg) complex was injected through the femoral vein, followed by constant infusion of FL-TFPI (11.4 μg/kg/min)or heparin (5.4 μg/kg/min)/FL-TFPI (4.3 μg/kg/min) complex over a 4-hr period. Blood collection and plasma sample preparation were carried out as described above.
as §5

factor Xa = settings: purified system; cited from earlier work
[8] = tested on: intrinsic and the common pathways; assay: Activated partial thromboplastin time (APTT) assay; format: biochemical, human
Experimental: as §3
Ninety (90) μl of plasma were mixed with 10 μl of DB, FL-TFPI solution, or heparin solution in the Fibrometer well at 37° for 1 min. One hundred (100) μl of Dade's activated cephaloplastin reagent were added and the mixture was incubated for exactly 2 min. A calcium solution (100 μl of 25 mM CaCl2) was added and the time to clotting was recorded.
as §4

[9] = tested on: fibrin-dependent glomerulonephritis model; settings: clinical dose of heparin; cited from earlier work
[10] = Solubility of FL-TFPI and heparin/FL-TFPI complexes
From the text: as §6

[11] = bolus injection, rabbits, PCFIA
[12] = individual rabbits #1-#3, PCFIA
[13] = up to 40 μg/ml N-acetyl heparin (FIG. 5)

FL-TFPI: Recombinant full-length (FL-) TFPI, tissue factor pathway inhibitor
prolongation of the clotting time ([1]; 2 μg/ml FL-TFPI alone): 58 s
clotting time ([1]; 2 μg/ml FL-TFPI alone (FIG. 3)): 78 s
clotting time ([1]; 2 μg/ml FL-TFPI alone (FIG. 5)): 90 s
clotting time ([1]; 2 μg/ml FL-TFPI alone (FIG. 6)): 82 s
NaCl required for dissociation from heparin [2]: 0.6 to 1 M
solubility [3]: exceeds 5 mg/ml
potency in prolonging the clotting time compared with CT-TFPI ([4]; FIG. 2): much more potent in prolonging the clotting time than CT-TFPI; also recorded: far more potent than CT-TFPI in prolonging the TF-induced clotting time; also recorded: far more potent than CT-TFPI alone or in combination with heparin
prolongation of clotting time [4]: increasingly prolong the clotting time in a moderate manner
PT ratio increase compared with APTT ratio ([5]; FIG. 1): much greater increase of the PT ratio than the APTT ratio
primary site of action ([5]; from PT and APTT ratios): primarily affects the extrinsic pathway
clearance of TFPI antigen (PCFIA) vs functional TFPI activity (dPT) ([6]; bolus injection, rabbits): closely matched
faster overall clearance relative to heparin/FL-TFPI complex ([6]; bolus injection, rabbits): ~ 2.6 fold
overall clearance ([6]; bolus injection, rabbits): 5.7 mL/kg/min
t1/2α [6, 11]: 1.4 min
t1/2β [6, 11]: 92 min
tα [6, 12]: 1.5 min and 1.7 min and 1.0 min
% AUCα [6, 12]: 9.4% and 7.2% and 7.9%
% AUCβ [6, 12]: 90.6% and 92.8% and 92.1%
Clearence [6, 12]: 5.9 mL/min/kg and 4.3 mL/min/kg and 6.8 mL/min/kg
Vd [6, 12]: 118 mL/kg and 115 mL/kg
tβ [6, 12]: 89 min and 96 min and 91 min
tα ([6]; mean of 3 rabbits (±SEM on separate line), PCFIA): 1.4 min
% AUCα ([6]; mean of 3 rabbits, PCFIA): 8.2%
% AUCβ ([6]; mean of 3 rabbits, PCFIA): 92%
Clearence ([6]; mean of 3 rabbits, PCFIA): 5.7 mL/min/kg
Vd ([6]; mean of 3 rabbits, PCFIA): 117 mL/kg
tβ ([6]; mean of 3 rabbits, PCFIA): 92 min
% AUCβ ([6]; mean of 3 rabbits, PCFIA, listed as TFPI): 91.8%
steady state plasma level of TFPI [7]: ~ 2 μg/ml

N-acetyl heparin
clotting time [1, 13]: ~ 18 sec
clotting time (in words) [1, 13]: did not alter the clotting time

heparin
rate of factor Xa inhibition by TFPI (factor Xa): enhances the rate of factor Xa inhibition by TFPI in a concentration dependent and biphasic manner
prolongation of the clotting time ([1]; 10 μg/ml heparin alone): 26 s
clotting time ([1]; heparin beyond 1.25 μg/ml (FIG. 3)): progressively prolonged
clotting time ([1]; heparin up to 1.25 μg/ml (FIG. 3)): did not alter the clotting time
prolongation of clotting time [4]: increasingly prolong the clotting time in a moderate manner
APTT ratio increase compared with PT ratio ([8]; FIG. 1): much greater increase of APTT ratio than PT ratio
primary site of action ([8]; from PT and APTT ratios): mainly inhibits the intrinsic pathway
beneficial effect on the disease process [9]: did not produce a beneficial effect on the disease process

non-glycosylated recombinant E. coli-derived FL-TFPI: non-glycosylated recombinant E. coli-derived FL-TFPI
solubility ([10]; Dulbecco's phosphate-buffered saline, estimated): approximately 200 μg/ml
solubility ([10]; saline solutions, compared with glycosylated FL-TFPI): even lower
